Measured values from patent publication US20100260668A1 (published 2010).
Where “and” joins values, the source holds several entries; their conditions need not be identical. Equal entries are not always repeated.

How the values were obtained:
[1] = target: T1, CD40/FC (CD40 ECD/FC chimera-His tag) (UniProt P25942 21-193); assay: Direct Bind ELISA, C-terminal variable domain
T1 construct: extracellular domain; bought reagent; not shown: IgG FC domain and His tag of the bought chimera

CD-19 [2] = target: T2, CD-19 (human, UniProt P15391 20-556); assay: flow cytometry on cells carrying the target, 2 ug/mL; parent antibody
T2 construct: whole, on cells
T2 sequence (looked up): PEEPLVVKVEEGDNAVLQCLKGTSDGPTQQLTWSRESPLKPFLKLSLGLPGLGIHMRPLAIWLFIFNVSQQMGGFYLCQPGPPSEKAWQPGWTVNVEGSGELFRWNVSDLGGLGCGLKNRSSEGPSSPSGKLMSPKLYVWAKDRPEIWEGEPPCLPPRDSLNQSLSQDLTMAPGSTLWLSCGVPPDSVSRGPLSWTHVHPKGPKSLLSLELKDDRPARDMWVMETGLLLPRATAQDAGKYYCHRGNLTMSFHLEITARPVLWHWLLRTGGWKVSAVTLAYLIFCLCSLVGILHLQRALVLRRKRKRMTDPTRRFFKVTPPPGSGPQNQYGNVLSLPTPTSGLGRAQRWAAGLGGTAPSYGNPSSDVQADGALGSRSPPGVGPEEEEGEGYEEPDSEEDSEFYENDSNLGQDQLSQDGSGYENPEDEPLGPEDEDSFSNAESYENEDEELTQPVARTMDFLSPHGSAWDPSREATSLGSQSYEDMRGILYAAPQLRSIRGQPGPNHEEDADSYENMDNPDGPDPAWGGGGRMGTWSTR

[3] = target: T3, NRP1 (Neuropilin-1 Npn-1-His tag) (UniProt O14786-2 22-644); assay: Direct Bind ELISA, antigen on plate; N-terminal VD
T3 construct: Bought reagent

[4] = target: T3, NRP1 (Neuropilin-1 Npn-1-His tag); assay: Direct Bind ELISA, antigen on plate
[5] = target: T4, human DLL4 extracellular domain (human, UniProt Q9NR61 27-529, biotin label in the Notch-1 competition ELISA (sites not given)); assay: competition ELISA: biotin-labelled human DLL4 ECD pre-mixed with antibody, then on coated human Notch-1 (competitor Notch-1)
T4 construct: extracellular domain; also called biotin labeled human DLL4 extracellular domain

[6] = target: T4, human DLL4 extracellular domain; assay: competition ELISA: 14 nM biotin-labelled human DLL4 ECD pre-mixed with antibody, then on coated human Notch-1 (competitor Notch-1)
[7] = target: T5, human DLL4 on 293G-human DLL4 cells (human, UniProt Q9NR61 27-685); assay: FACS: inhibition of Notch1 binding to 293G-human DLL4 cells (competitor Notch1)
T5 construct: whole, on cells; no method paragraph describes this FACS assay

[8] = target: T4, human DLL4 extracellular domain; assay: cell-based or functional assay
[9] = target: T6, recombinant His-RON partial ECD (R&D Systems #1947-MS) (UniProt Q04912 25-957, limits assumed); assay: competition ELISA: DVD-Ig pre-incubated with 10 nM His-RON partial ECD, then on captured MSP1 (competitor MSP1)
T6 construct: extracellular domain; also called MSP Receptor ECD-His tag; not shown: His tag

recombinant human HGF = target: T7, recombinant human HGF (human, UniProt P14210 32-728); assay: competition ELISA: antibody co-incubated with 2 nM soluble c-Met Fc on coated HGF (competitor c-Met Fc)
T7 construct: The target there is entered as this HGF; also called hepatocyte growth factor
T7 sequence (P14210 32-728 limits assumed): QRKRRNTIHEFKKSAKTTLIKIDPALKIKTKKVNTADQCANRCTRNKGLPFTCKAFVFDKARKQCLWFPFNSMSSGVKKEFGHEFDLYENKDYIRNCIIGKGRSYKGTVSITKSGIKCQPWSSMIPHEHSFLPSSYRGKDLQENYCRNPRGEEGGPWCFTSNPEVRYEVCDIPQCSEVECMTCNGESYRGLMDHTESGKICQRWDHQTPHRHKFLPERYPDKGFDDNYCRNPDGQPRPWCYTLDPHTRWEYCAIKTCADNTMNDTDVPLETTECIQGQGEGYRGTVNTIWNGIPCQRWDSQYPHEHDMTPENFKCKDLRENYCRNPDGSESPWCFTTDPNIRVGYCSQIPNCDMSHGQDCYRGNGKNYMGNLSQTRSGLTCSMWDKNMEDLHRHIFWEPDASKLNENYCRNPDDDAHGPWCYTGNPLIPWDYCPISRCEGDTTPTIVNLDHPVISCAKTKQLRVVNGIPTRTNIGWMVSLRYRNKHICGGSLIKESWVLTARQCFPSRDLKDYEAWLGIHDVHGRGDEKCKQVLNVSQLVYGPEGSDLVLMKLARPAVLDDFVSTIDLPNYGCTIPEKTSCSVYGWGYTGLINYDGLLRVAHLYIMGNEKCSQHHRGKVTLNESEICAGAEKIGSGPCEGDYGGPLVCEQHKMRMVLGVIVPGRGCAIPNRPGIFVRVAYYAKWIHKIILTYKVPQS

PlGF (Placental GF) = target: T8, PlGF (Placental GF) (UniProt P49763-2 21-149, limits assumed); assay: Direct Bind ELISA, antigen on plate
T8 construct: Bought reagent
T8 sequence (looked up): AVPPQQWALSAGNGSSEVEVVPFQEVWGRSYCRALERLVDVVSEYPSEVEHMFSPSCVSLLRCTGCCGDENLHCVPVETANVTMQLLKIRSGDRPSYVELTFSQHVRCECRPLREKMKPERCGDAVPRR

[10] = target: T9, placental growth factor (PLGF) (UniProt P49763-2 21-149, limits assumed); assay: ligand-receptor binding competition assay, PlGF binding to VEGFR1
T9 construct: also called P1GF
T9 sequence (looked up): T8 sequence (looked up)

CD-19 [11] = target: T2, CD-19; assay: flow cytometry on cells carrying the target, 2 ug/mL; N-terminal VD
[12] = target: T3, NRP1 (Neuropilin-1 Npn-1-His tag); assay: Direct Bind ELISA, antigen on plate; C-terminal VD

T1 sequence (P25942 21-193, change not shown): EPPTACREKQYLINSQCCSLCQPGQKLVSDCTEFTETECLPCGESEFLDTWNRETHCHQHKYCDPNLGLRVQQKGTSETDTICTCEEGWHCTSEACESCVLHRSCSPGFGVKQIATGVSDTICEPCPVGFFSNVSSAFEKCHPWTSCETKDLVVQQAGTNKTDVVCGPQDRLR

B1: DVD009 DVD-Ig (bispecific antibody, human IgG1, kappa)
heavy: not shown
light: QIVLSQSPAILSPSPGEKVTMTCRASSSVSYIHWFQQKPGSSPKPWIYATSNLASGVPVRFSGSGSGTSYSLTISRVEAEDAATYYCQQWTSNPPTFGGGTKLEIKRTVAAPDIVMTQSPLSLTVTPGEPASISCRSSQSLLYSNGYNYLDWYLQKPGQSPQVLISLGSNRASGVPDRFSGSGSGTDFTLKISRVEAEDVGVYYCMQARQTPFTFGPGTKVDIRRTVAAPSVFIFPPSDEQLKSGTASVVCLLNNFYPREAKVQWKVDNALQSGNSQESVTEQDSKDSTYSLSSTLTLSKADYEKHKVYACEVTHQGLSSPVTKSFNRGEC
notes: outer AB001 (CD-20), inner AB009 (CD-40); HC/LC linkers short/short; also called DVD009H; DVD009L
binding result [1]: binds

B2: AB006 (antibody, human IgG1, kappa, V domains shown)
VH: QVQLQQSGAELVRPGSSVKISCKASGYAFSSYWMNWVKQRPGQGLEWIGQIWPGDGDTNYNGKFKGKATLTADESSSTAYMQLSSLASEDSAVYFCARRETTTVGRYYYAMDYWGQGTSVTVSS
VL: DILLTQTPASLAVSLGQRATISCKASQSVDYDGDSYLNWYQQIPGQPPKLLIYDASNLVSGIPPRFSGSGSGTDFTLNIHPVEKVDAATYHCQQSTEDPWTFGGGTKLEIKR
notes: Parent antibody
FACS Geometric Mean (CD-19 [2]): 979

B3: DVD050 (NRP1 (seq. 1) and VEGF (seq. 1) DVD-Ig) (bispecific antibody, IgG1)
VH: EVQLVESGGGLVQPGGSLRLSCAASGFSFSSEPISWVRQAPGKGLEWVSSITGKNGYTYYADSVKGRFTISADTSKNTAYLQMNSLRAEDTAVYYCARWGKKVYGMDVWGQGTLVTVSSASTKGPEVQLVESGGGLVQPGGSLRLSCAASGYTFTNYGMNWVRQAPGKGLEWVGWINTYTGEPTYAADFKRRFTFSLDTSKSTAYLQMNSLRAEDTAVYYCAKYPHYYGSSHWYFDVWGQGTLVTVSS
VL: DIQMTQSPSSLSASVGDRVTITCRASQSISSYLAWYQQKPGKAPKLLIYGASSRASGVPSRFSGSGSGTDFTLTISSLQPEDFATYYCQQYMSVPITFGQGTKVEIKRTVAAPDIQMTQSPSSLSASVGDRVTITCSASQDISNYLNWYQQKPGKAPKVLIYFTSSLHSGVPSRFSGSGSGTDFTLTISSLQPEDFATYYCQQYSTVPWTFGQGTKVEIKR
notes: HC vector V1 (wild-type hIgG1 constant), LC vector V2 (kappa constant); also called DVD050H; DVD050L
EC50 [3]: 0.46 nM

B4: AB016 (anti-NRP1 (seq. 1) parent antibody) (antibody, IgG1, V domains shown)
VH: EVQLVESGGGLVQPGGSLRLSCAASGFSFSSEPISWVRQAPGKGLEWVSSITGKNGYTYYADSVKGRFTISADTSKNTAYLQMNSLRAEDTAVYYCARWGKKVYGMDVWGQGTLVTVSS
VL: DIQMTQSPSSLSASVGDRVTITCRASQSISSYLAWYQQKPGKAPKLLIYGASSRASGVPSRFSGSGSGTDFTLTISSLQPEDFATYYCQQYMSVPITFGQGTKVEIKR
notes: HC vector V1 (wild-type hIgG1 constant), LC vector V2 (kappa constant); also called AB016VH; AB016VL
EC50 [4]: 0.58 nM

B5: AB015 (anti-DLL-4 (seq. 1) parent antibody) (antibody, human IgG1, kappa)
heavy: not shown
light: DIQMTQSPSSLSASVGDRVTITCRASQDVSTAVAWYQQKPGKAPKLLIYSASFLYSGVPSRFSGSGSGTDFTLTISSLQPEDFATTYYCQQSYTGTVTFGQGTKVEIKRTVAAPSVFIFPPSDEQLKSGTASVVCLLNNFYPREAKVQWKVDNALQSGNSQESVTEQDSKDSTYSLSSTLTLSKADYEKHKVYACEVTHQGLSSPVTKSFNRGEC
notes: also called AB015VH/AB015VL
IC50 [5]: 0.37 nM and 0.4 nM
IC50 [6]: 2.47 nM and 2.69 nM and 2.53 nM and 2.74 nM
IC50 [7]: 2.3 nM
Ref. Ab Inhibition of sFlt1 (IC50, nM) [8]: 0.34 nM

B6: DVD047 (VEGF (seq. 1) N-terminal / RON (seq. 1) C-terminal DVD-Ig) (bispecific antibody, human IgG1, kappa)
heavy: not shown
light: DIQMTQSPSSLSASVGDRVTITCSASQDISNYLNWYQQKPGKAPKVLIYFTSSLHSGVPSRFSGSGSGTDFTLTISSLQPEDFATYYCQQYSTVPWTFGQGTKVEIKRTVAAPDVVMTQSPLSLPVTPGEPASISCRSSQSLLHSNGFNYVDWYLQKPGQSPHLLIYFGSYRASGVPDRFSGSGSGTDFTLKISRVEAEDVGVYYCMQALQTPPWTFGQGTKVEIRRTVAAPSVFIFPPSDEQLKSGTASVVCLLNNFYPREAKVQWKVDNALQSGNSQESVTEQDSKDSTYSLSSTLTLSKADYEKHKVYACEVTHQGLSSPVTKSFNRGEC
notes: also called DVD047H/DVD047L
IC50 [9]: 21.3 nM

B7: AB012 (anti-HGF (seq. 1) parent antibody) (antibody, human IgG1, kappa, V domains shown)
VH: QVQLVESGGGLVKPGGSLRLSCAASGFTFSDYYMSWIRQAPGKGLEWVSYISSSGSTIYYADSVKGRFTISRDNAKNSLYLQMNSLRAEDTAVYYCARDEYNSGWYVLFDYWGQGTLVTVSS
VL: DIQMTQSPSSVSASVGDRVTITCRASQGISSWLAWYQQKPGKAPNLLIYEASSLQSGVPSRFGGSGSGTDFTLTISSLQPEDFATYYCQQANGFPWTFGQGTKVEIKR
notes: also called AB012VH/AB012VL
IC50 (recombinant human HGF): 0.18 nM

B8: AB047 (anti-PLGF (seq. 1) parent antibody) (antibody, IgG1, V domains shown)
VH: QVQLQQSGAELVKPGASVKISCKASGYTFTDYYINWVKLAPGQGLEWIGWIYPGSGNTKYNEKFKGKATLTIDTSSSTAYMQLSSLTSEDTAVYFCVRDSPFFDYWGQGTLLTVSS
VL: DIVLTQSPDSLAVSLGERVTMNCKSSQSLLNSGMRKSFLAWYQQKPGQSPKLLIYWASTRESGVPDRFTGSGSGTDFTLTISSVQAEDVAVYYCKQSYHLFTFGSGTKLEIKR
notes: HC vector V1 (wild-type hIgG1 constant), LC vector V2 (kappa constant); also called AB047VH; AB047VL
EC50 (PlGF (Placental GF)): 0.2 nM

B9: AB047 (antibody, human IgG1, kappa, V domains shown)
VH: B8 VH
VL: B8 VL
notes: Parent anti-PlGF antibody; also called AB047VH
IC50 [10]: 3.07 nM

B10: DVD002 (bispecific antibody, human IgG1, kappa)
heavy: not shown
light: DILLTQTPASLAVSLGQRATISCKASQSVDYDGDSYLNWYQQIPGQPPKLLIYDASNLVSGIPPRFSGSGSGTDFTLNIHPVEKVDAATYHCQQSTEDPWTFGGGTKLEIKRTVAAPQIVLSQSPAILSPSPGEKVTMTCRASSSVSYIHWFQQKPGSSPKPWIYATSNLASGVPVRFSGSGSGTSYSLTISRVEAEDAATYYCQQWTSNPPTFGGGTKLEIKRTVAAPSVFIFPPSDEQLKSGTASVVCLLNNFYPREAKVQWKVDNALQSGNSQESVTEQDSKDSTYSLSSTLTLSKADYEKHKVYACEVTHQGLSSPVTKSFNRGEC
notes: DVD-Ig; outer AB006 (CD-19), inner AB001 (CD-20); also called CD-19 and CD-20 DVD-Ig
FACS Geometric Mean N-terminal (CD-19 [11]): 1100

B11: DVD049 (VEGF (seq. 1) and NRP1 (seq. 1) DVD-Ig) (bispecific antibody, IgG1)
VH: EVQLVESGGGLVQPGGSLRLSCAASGYTFTNYGMNWVRQAPGKGLEWVGWINTYTGEPTYAADFKRRFTFSLDTSKSTAYLQMNSLRAEDTAVYYCAKYPHYYGSSHWYFDVWGQGTLVTVSSASTKGPEVQLVESGGGLVQPGGSLRLSCAASGFSFSSEPISWVRQAPGKGLEWVSSITGKNGYTYYADSVKGRFTISADTSKNTAYLQMNSLRAEDTAVYYCARWGKKVYGMDVWGQGTLVTVSS
VL: DIQMTQSPSSLSASVGDRVTITCSASQDISNYLNWYQQKPGKAPKVLIYFTSSLHSGVPSRFSGSGSGTDFTLTISSLQPEDFATYYCQQYSTVPWTFGQGTKVEIKRTVAAPDIQMTQSPSSLSASVGDRVTITCRASQSISSYLAWYQQKPGKAPKLLIYGASSRASGVPSRFSGSGSGTDFTLTISSLQPEDFATYYCQQYMSVPITFGQGTKVEIKR
notes: HC vector V1 (wild-type hIgG1 constant), LC vector V2 (kappa constant); also called DVD049H; DVD049L
EC50 [12]: 0.5 nM
